± gives the uncertainty stated by the source.
Experiment: protein stability index of a GFP-peptide fusion (yeast GPS) (PSI 1-4); higher = more stable; sorted into four equal gates, so the index is relative within each strain
Conditions: ubr1∆
Outline: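 Peptides tiling yeast proteins in 17-residue segments were fused downstream of GFP, with Cherry expressed from the same plasmid. As a pooled library in yeast, mid-log cultures grown in leucine-free medium were sorted into four equal gates by GFP/Cherry fluorescence ratio. Gate plasmids were PCR-amplified and Illumina-sequenced, and barcodes linked reads to strains. Each peptide received a protein stability index equal to the sum of each gate's read frequency times its gate number.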

First: PEHLRKIINTHSDMASK [PRP8]
Second: PELAMALRLSMEEEQQR [RPN10]
The protein stability index of the first is lower: 2.37 ± 0.039 for the first, 3.14 ± 0.08 for the second.

Compared with PELGDKFSSRHGQKGVC [RET1], PEMSNLYRLSTPLRDEV [PRP8] is lower in protein stability index: 3.09 ± 0.1 for the first, 2.75 ± 0.06 for the second.

First: PESIRQKKARTILQHLS [PRP8]
Second: PEYGRIIASASYDKTVK [YGL100W/SEH1]
The protein stability index of the first is lower: 1.21 ± 0.24 for the first, 2.11 ± 0.056 for the second.

Going from PFDDDEPPLSYEQHIEN [PRP8] to PFKVFLDIGLQRTTTGA [RPL5], the protein stability index falls from 2.31 ± 0.053 to 1.53 ± 0.053.

First: PGDGSSYINVTFRAVVF [RPC25]
Second: PGDVLDKDAFIPKLKPA [SNU114]
The protein stability index of the first is higher: 2.08 ± 0.054 for the first, 1.71 ± 0.12 for the second.

PGHSLLLSIKLPGKVNT [SNF5] and PGHVNFMDETAVALAAS [SNU114] are within error of each other in protein stability index: 2.29 ± 0.04 for the first, 2.34 ± 0.066 for the second.

Compared with PGIMLRQMNLVITLLNN [YCS4], PGTIVLYAERVQDRGLS [RPS3] is higher in protein stability index: 1.19 ± 0.041 for the first, 3.17 ± 0.041 for the second.

First: PGTVLILLAGRFRGKRV [RPL6A]
Second: PHIQKMLSILEIFKKGY [POP6]
The protein stability index of the first is lower: 2.19 ± 0.073 for the first, 2.54 ± 0.066 for the second.

First: PIFDYIHIDALELAGMD [SIR3]
Second: PIRINSTEEIEYIELEY [YMR129W/POM152]
The protein stability index of the first is lower: 2.17 ± 0.092 for the first, 2.82 ± 0.039 for the second.

Going from PKAVVDHINGSGKRKPT [GAL11] to PKDYIKKLLEVHDIFSK [CDC53], the protein stability index falls from 2.16 ± 0.079 to 1.66 ± 0.04.

First: PKFFLGEENRVRFIGDS [QCR2]
Second: PKLKEGALHFVQQSEKL [YIL149C/MLP2]
The protein stability index of the first is higher: 3.2 ± 0.069 for the first, 2.88 ± 0.05 for the second.

Compared with PKLKRIGLVKCTQMTDE [GRR1], PKMGVSSSSLECATCHG [RPO31] is higher in protein stability index: 2.86 ± 0.047 for the first, 3.2 ± 0.056 for the second.

First: PKNFGIGQAVQPKRNLS [RPL8A]
Second: PKRKRRLPVSEDTNTKP [YOR098C/NUP1]
The protein stability index of the first is lower: 2.69 ± 0.05 for the first, 2.97 ± 0.073 for the second.

Compared with PKSKSLPNEMSQNDGFV [RPO31], PLGVILTFVSVDEELGP [SCL1] is lower in protein stability index: 3.36 ± 0.11 for the first, 2.46 ± 0.04 for the second.

First: PLHLIFAQPVADIENST [SSN2]
Second: PLILTPPQLANQQQPPQ [SNF11]
The protein stability index of the first is higher: 2.67 ± 0.1 for the first, 2.15 ± 0.069 for the second.

Compared with PLIMATCGSKGSTLNVS [RPO31], PLNKPLLTEELAKSGST [TAF14] is higher in protein stability index: 2.23 ± 0.069 for the first, 2.39 ± 0.054 for the second.

PLPICHANSVVALTGLL [YML031W/NDC1] and PLQNIHVRKVKLLKQPK [RPS1A] are within error of each other in protein stability index: 2.5 ± 0.12 for the first, 2.53 ± 0.065 for the second.

Compared with PLQSMDIEQLEYSRDCF [RPB3], PLSDLKKRSQAKMNAKT [RPC82] is higher in protein stability index: 2.93 ± 0.11 for the first, 3.32 ± 0.045 for the second.

Going from PLVAHLGLYVGVDDQIL [YJL039C/NUP192] to PMLMANNDVFTIGPYRA [SSN3], the protein stability index rises from 1.48 ± 0.13 to 3.14 ± 0.058.

Going from PNALKPLSESLRLVDDD [RRP6] to PNDSNDEKVTILVDSLT [SWI1], the protein stability index falls from 3.23 ± 0.055 to 3.06 ± 0.042.

Compared with PNFTGIDKLMLSPSDQF [SSN2], PNGEGSKTWETYEMRIH [RPS20] is higher in protein stability index: 1.61 ± 0.067 for the first, 3.33 ± 0.045 for the second.

Going from PNIVEIDLDNDEDDDED [DLS1] to PNSGTATTGGFGANQAT [YGR119C/NUP57], the protein stability index falls from 3.04 ± 0.15 to 2.14 ± 0.067.

Going from PNTSDNNNNSNNHNMRN [SWI1] to PPGTGKTLCARAVANRT [RPT1], the protein stability index falls from 3.15 ± 0.038 to 1.27 ± 0.12.

Compared with PPGYEIEELDNPMVPSS [PRP8], PPQQTYHFPIFNKYADP [RPN4] is lower in protein stability index: 2.82 ± 0.049 for the first, 2.65 ± 0.03 for the second.

Going from PPSKHSTLTLSDSEDSD [ESC2] to PQGFSSVERGRKRAHSL [REC8], the protein stability index rises from 2.64 ± 0.19 to 3.19 ± 0.067.

PQPLFMEDPPSTVSGEL [YMR153W/NUP53] and PQQAQMQQAQFQAQQAQ [SNF2] are within error of each other in protein stability index: 3.12 ± 0.16 for the first, 3.1 ± 0.041 for the second.

PQRLTVLRLATNKGPLA [MCD1] and PQTTQMFQSQSQLQPQP [YDL088C/ASM4] are within error of each other in protein stability index: 2.42 ± 0.074 for the first, 2.46 ± 0.03 for the second.

Compared with PQYQYQRRYVIKEKVQF [ITC1], PRIQRADPVALYLGLKR [RPB5] is higher in protein stability index: 1.47 ± 0.03 for the first, 2.28 ± 0.083 for the second.

Compared with PRLEKLINEILLKSNDP [RGR1], PRMIELMEFLCVVSTDS [ECM29] is lower in protein stability index: 1.86 ± 0.039 for the first, 1.4 ± 0.054 for the second.

PRPSYSSRPNVNTTRRF [YMR129W/POM152] and PRRFGKGSRQCRVCSSH [RPS29B] are within error of each other in protein stability index: 2.82 ± 0.067 for the first, 2.912 ± 0.029 for the second.

First: PSANNSSSIKSTGPTGA [RRP4]
Second: PSCVYNLIGVITHQGAN [UBP6]
The protein stability index of the first is higher: 3.348 ± 0.032 for the first, 2.48 ± 0.18 for the second.

First: PSEIPDAHKAEQEDIIE [SWI3]
Second: PSFMLKHHQLFYMLNAG [RPN1]
The protein stability index of the first is higher: 3.05 ± 0.17 for the first, 1.12 ± 0.086 for the second.

Compared with PSKKLKTEDGFVIPALP [RPC82], PSLELSAEYLQMSLEAN [YJR042W/NUP85] is lower in protein stability index: 3.08 ± 0.065 for the first, 2.4 ± 0.07 for the second.

Going from PSLIQEEEEDTTTTANI [NUT1] to PSLKAHFTEIKLNKVDK [SIR3], the protein stability index falls from 3.16 ± 0.19 to 2.08 ± 0.082.

First: PSLKFKPKAVARKSKEE [RPC53]
Second: PSMKKIKIEPSADDDVN [SIR3]
The protein stability index of the first is higher: 2.88 ± 0.077 for the first, 2.73 ± 0.069 for the second.

Compared with PSRIFYKALRGMVSHKT [RPL16A], PSTKVASSAVMNRRKIA [YLR335W/NUP2] is higher in protein stability index: 1.82 ± 0.13 for the first, 2.38 ± 0.073 for the second.

First: PSVGVKTMKTFVIHIQE [RPB5]
Second: PSVNDFVIGVIIGTFSD [RRP40]
The protein stability index of the first is higher: 2.76 ± 0.1 for the first, 2.56 ± 0.084 for the second.

Compared with PTDSSKILQKRSISKEL [SIR3], PTLAGMAQRTLKNKYES [FAS2] is lower in protein stability index: 2.85 ± 0.081 for the first, 2.657 ± 0.02 for the second.

Compared with PTLQVGDLVYARVCTAE [RRP40], PTPAIIKPKPLWSGKQI [RPO21] is higher in protein stability index: 1.88 ± 0.082 for the first, 2.54 ± 0.098 for the second.

PTPVVTISEKEQDILDL [SSN2] and PTSAQKSAVSHAPAYHR [IRR1] are within error of each other in protein stability index: 2.73 ± 0.099 for the first, 2.89 ± 0.062 for the second.

PVAKWFVKFITYLTQEI [SIN4] and PVFHKKAKTTKKVVLRL [RPL42A] are within error of each other in protein stability index: 2.07 ± 0.064 for the first, 1.98 ± 0.14 for the second.

Going from PVGACATSVESVDIGVE [FAS2] to PVKVSGTIKKIEQFAMR [POP5], the protein stability index falls from 2.86 ± 0.089 to 2.56 ± 0.042.

First: PVTLAKVIKVLGRTGSR [RPS28A]
Second: PVYATIGVETGSEPLIQ [PRP28]
The protein stability index of the first is lower: 2.5 ± 0.13 for the first, 2.86 ± 0.12 for the second.

Going from PWNDDYPFLLSFLGEAK [YML103C/NUP188] to PYDKKKRVVVPQALRVL [RPL16A], the protein stability index falls from 1.98 ± 0.046 to 1.35 ± 0.14.

First: QACGLVKNLSLMSCISV [RPB2]
Second: QAEATEWAEENADNVEW [RPS0A]
The protein stability index of the first is lower: 2.17 ± 0.075 for the first, 2.41 ± 0.066 for the second.

First: QALQMKAMDIPIGRHEE [SWP82]
Second: QAQAQAQAAQAAQAQAQ [GAL11]
The protein stability index of the first is lower: 2.08 ± 0.062 for the first, 3.04 ± 0.11 for the second.

Compared with QAQAQAQANNNNNGLPQ [GAL11], QCLRFLKETVIPSLANN [POP6] is lower in protein stability index: 3.05 ± 0.033 for the first, 2.09 ± 0.051 for the second.

Going from QDGGIMGSLINGITLAL [SKI6] to QDGVLLVALSNEPAARL [FAS2], the protein stability index falls from 2.66 ± 0.047 to 1.46 ± 0.071.

QDKDAIRKQPDDIINND [SIR2] and QDKIELSEEETLLVIRR [SNF2] are within error of each other in protein stability index: 2.89 ± 0.061 for the first, 2.98 ± 0.089 for the second.

Compared with QDRDRFFLRDTLLWNKN [SNF5], QDRHVIFLAERRILPKP [RPS7A] is lower in protein stability index: 3 ± 0.039 for the first, 2.73 ± 0.088 for the second.

First: QDSIDISIKDNKLVMKS [GAL11]
Second: QEASKQYTKDEQFYTKD [RPN2]
The protein stability index of the first is lower: 2.05 ± 0.068 for the first, 3.25 ± 0.056 for the second.

In the case of QEHNIQDSNVMPGSQIN [SNF2], the protein stability index is reported as 3.31 ± 0.062.

From the supplement of paper PMC9732359
